Data: paper PMC4948773, “Identification of Preferred DNA-Binding Sites for the Thermus thermophilus Transcriptional Regulator SbtR by the Combinatorial Approach REPSA” (PLoS ONE, 2016)
Substitutions are numbered along the chain they refer to.

T1: SbtR (Thermus thermophilus HB8, UniProt Q5SLX6 1-189)
T1 sequence: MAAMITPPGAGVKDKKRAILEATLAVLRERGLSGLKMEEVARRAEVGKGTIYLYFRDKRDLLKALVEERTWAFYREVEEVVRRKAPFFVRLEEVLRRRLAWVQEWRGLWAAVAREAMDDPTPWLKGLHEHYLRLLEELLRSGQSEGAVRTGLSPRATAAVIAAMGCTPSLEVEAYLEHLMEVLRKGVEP

B1: SbtR, transcriptional regulator encoded by the Thermus thermophilus HB8 TTHA0167 gene (natural protein, UniProt Q5SLX6 1-189, looked up)
chain: T1 sequence
modifications: intermolecular disulfide bond (disulfide-linked dimeric species)
notes: SbtR, TetR/AcrR family transcriptional regulator, Thermus thermophilus HB8, TTHA0167 (sbtR) gene in pET-11a; 189 amino acid residues, 21,539 Da; called wild-type SbtR; It says the plasmid holds the TTHA0167 gene and reckons the stock concentration from the 189-residue protein; also called SbtR2; SbtR dimer; source: E. coli BL21(DE3) with pET-sbtR, IPTG-induced; soluble extract heated at 70°C for …
B2: m1 (dsDNA)
DNA 1: CTAGGAATTCGTGCAGAGGTGAATAGACTGGCCAGTCATTACCATCCCTCCAGAAGCTTGGAC
DNA 2: GTCCAAGCTTCTGGAGGGATGGTAATGACTGGCCAGTCTATTCACCTCTGCACGAATTCCTAG
B3: m7 (dsDNA)
DNA 1: B2 DNA 1 with A25T, G31C
DNA 2: B2 DNA 2 with C33G, T39A
B4: m5 (dsDNA)
DNA 1: B2 DNA 1 with A25T, T29A
DNA 2: B2 DNA 2 with A35T, T39A
B5: m6 (dsDNA)
DNA 1: B2 DNA 1 with A25T, G30C
DNA 2: B2 DNA 2 with C34G, T39A
B6: m2 (dsDNA)
DNA 1: B2 DNA 1 with A25T, G26C
DNA 2: B2 DNA 2 with C38G, T39A
B7: m4 (dsDNA)
DNA 1: B2 DNA 1 with A25T, C28G
DNA 2: B2 DNA 2 with G36C, T39A
B8: m3 (dsDNA)
DNA 1: B2 DNA 1 with A25T, A27T
DNA 2: B2 DNA 2 with T37A, T39A
B9: SbtR mini probe 22-bp (dsDNA)
DNA 1: GCCCTGACTGGCCAGTCACCCG
DNA 2: CGGGTGACTGGCCAGTCAGGGC

Experiments:
[1] = target: the molecule itself; test: SDS-PAGE with and without reductant; Coomassie-stained 4-20% SDS-PAGE gradient gel; purified SbtR loaded under standard reducing conditions or under oxidizing conditions (Laemmli loading buffer lacking reductant)
SbtR [2] = target: T1, SbtR; test: BLI; EMSA/REPA: 50 mM K acetate, 20 mM Tris acetate, 10 mM Mg acetate, BSA (CutSmart), pH 7.9, binding 55 C 20 min (REPA cleavage 37 C); BLI: 20 mM Tris-Cl pH 7.7, 100 mM NaCl, 1 mM EDTA, 0.05% Tween 20, 30 C (hydration step; binding temperature not separately stated); concentrations as SbtR dimer; settings: protein: recombinant; tags: none stated (pET-11a, wild-type); chain copies: 2; label: 5' biotin-dT on strand 2 (extra 5' T in primer)
SbtR [3] = target: T1, SbtR; test: EMSA; S1 complex, apparent; EMSA/REPA: 50 mM K acetate, 20 mM Tris acetate, 10 mM Mg acetate, BSA (CutSmart), pH 7.9, binding 55 C 20 min (REPA cleavage 37 C); BLI: 20 mM Tris-Cl pH 7.7, 100 mM NaCl, 1 mM EDTA, 0.05% Tween 20, 30 C (hydration step; binding temperature not separately stated); concentrations as SbtR dimer; settings: protein: recombinant; tags: none stated (pET-11a, wild-type); chain copies: 2; label: 5' IRDye700 on strand 1; blunt

Row | Binder | Kd (SbtR [2]) [nM] | also measured
1 | B1 |  | stoichiometry N [1]: 2
2 | B2 | 0.551 | 
3 | B3 | 0.839 | 
4 | B4 | 15.5 | 
5 | B5 | 0.159 | 
6 | B6 | 7.11 | 
7 | B7 | 1.24 | 
8 | B8 | 2.18 | 
9 | B9 |  | Kd (SbtR [3]): 5 nM
